We go through 14 molecules from patent US12760268, “Compositions and methods related to transferrin receptor-binding aptamers” (University of Washington).

For series [1], the target named is T1, Transferrin receptor 1 (TfR1, CD71), endogenous on cells (Homo sapiens, UniProt P02786 SEQ:89-760). Put plainly: flow; H9 cells, apparent Kd (+/-0.2), 4 C. The note with it: chain copies: 2 (stated homodimer); label: 5'-FAM, 5'-Cy5 or 5'-biotin; hairpin.
The target in series [2] is T2, Cellular nucleic acid-binding protein (CNBP, ZNF9) (Homo sapiens, UniProt P62633 P62633:1-177). Put plainly: BLI. The note with it: tags: His-tag, Novus Biologicals NBP2-22742, immobilized on Ni-NTA biosensor.
Series [3] addresses T3, Transferrin receptor 1 (TfR1, CD71) (Homo sapiens, UniProt P02786 SEQ:89-760). As to the kind of experiment: BLI; 25 C, 5.5 mM Mg, 1:1 fit. The settings on record: tags: biotinylated, ACROBiosystems TfR-H82E5, immobilized on streptavidin biosensor, chain copies: 2.
For series [4], the target named is T3, Transferrin receptor 1 (TfR1, CD71). As to the kind of experiment: BLI; no appreciable binding, single concentration. The note with it: tags: biotinylated, ACROBiosystems TfR-H82E5, immobilized on streptavidin biosensor; chain copies: 2; label: 5'-FAM. On the technique in general: In BLI a coated tip is dipped into the sample, and binding shifts an interference pattern.

Series [5] concerns the target T2, Cellular nucleic acid-binding protein …. Put plainly: BLI; 2:1 heterogeneous ligand fit, second Kd; off-target. The note with it: tags: His-tag, Novus Biologicals NBP2-22742, immobilized on Ni-NTA biosensor; label: 5'-FAM (with added 5' T), 5'-Cy5 or 5'-biotin; multi-hairpin on stem; G-quadruplex predicted.
The target in series [6] is T1, Transferrin receptor 1 (TfR1, CD71), …. As to the kind of experiment: flow; H9 cells, apparent Kd (+/-13.0), 4 C. The settings on record: chain copies: 2 (stated homodimer); label: 5'-FAM (with added 5' T), 5'-Cy5 or 5'-biotin; multi-hairpin on stem; G-quadruplex predicted.
For series [7], the target named is T3, Transferrin receptor 1 (TfR1, CD71). Put plainly: BLI; 25 C, 5.5 mM Mg, 1:1 fit; tRNA and salmon sperm DNA present. The note with it: tags: biotinylated, ACROBiosystems TfR-H82E5, immobilized on streptavidin biosensor; chain copies: 2; label: 5'-FAM (with added 5' T), 5'-Cy5 or 5'-biotin; multi-hairpin on stem; G-quadruplex predicted.
Series [8] concerns the target Transferrin receptor 1 (mTfR1) (Mus musculus, UniProt Q62351 SEQ:89-763). As to the kind of experiment: BLI; 200 nM mTfR1 over immobilized biotinylated aptamer. The note with it: tags: His-tag, Sino Biological 50741-M07H; chain copies: 2; label: 5'-FAM (with added 5' T), 5'-Cy5 or 5'-biotin; multi-hairpin on stem; G-quadruplex predicted.
The target in series [9] is T2, Cellular nucleic acid-binding protein …. As to the kind of experiment: BLI; 2:1 heterogeneous ligand fit, first Kd; off-target. The settings on record: tags: His-tag, Novus Biologicals NBP2-22742, immobilized on Ni-NTA biosensor; label: 5'-FAM (with added 5' T), 5'-Cy5 or 5'-biotin; multi-hairpin on stem; G-quadruplex predicted.
The target in series [10] is T1, Transferrin receptor 1 (TfR1, CD71), …. Put plainly: flow; Jurkat cells, apparent Kd, 4 C; TfR1-independent component present. The note with it: chain copies: 2 (stated homodimer); label: 5'-FAM (with added 5' T), 5'-Cy5 or 5'-biotin; multi-hairpin on stem; G-quadruplex predicted.
In series [11] the target is T3, Transferrin receptor 1 (TfR1, CD71). As to the kind of experiment: BLI; negative control. The settings on record: tags: biotinylated, ACROBiosystems TfR-H82E5, immobilized on streptavidin biosensor; chain copies: 2; label: 5'-FAM, 5'-Cy5 or 5'-biotin.
Series [12] addresses T1, Transferrin receptor 1 (TfR1, CD71), …. Put plainly: flow; activated CD8+ T cells, apparent Kd, 4 C. The note with it: chain copies: 2 (stated homodimer); label: biotin; 3' 8-nt toehold overhang, redesigned stem.
The target is the same in series [13]. Put plainly: flow; Jurkat cells, apparent Kd, 4 C. The note with it: chain copies: 2 (stated homodimer).
The target is the same in series [14]. Put plainly: flow; activated CD4+ T cells, apparent Kd, 4 C. The settings on record: chain copies: 2 (stated homodimer); label: biotin; 3' 8-nt toehold overhang, redesigned stem.
For series [15] the target is unchanged. As to the kind of experiment: flow; H9 cells, apparent Kd, 4 C. The note with it: chain copies: 2 (stated homodimer); label: 5'-FAM or 5'-Cy5; multi-hairpin with extended stem.
The mark [16] stands for this setting: label: 5'-FAM, 5'-Cy5 or 5'-biotin, hairpin.

T2 sequence (P62633 whole entry, one chain of several): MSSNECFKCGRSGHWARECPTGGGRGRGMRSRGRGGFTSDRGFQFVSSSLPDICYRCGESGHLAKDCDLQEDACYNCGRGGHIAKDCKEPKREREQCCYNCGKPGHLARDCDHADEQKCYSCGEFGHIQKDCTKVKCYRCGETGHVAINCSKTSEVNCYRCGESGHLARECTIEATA
T1 sequence (P02786 89-760): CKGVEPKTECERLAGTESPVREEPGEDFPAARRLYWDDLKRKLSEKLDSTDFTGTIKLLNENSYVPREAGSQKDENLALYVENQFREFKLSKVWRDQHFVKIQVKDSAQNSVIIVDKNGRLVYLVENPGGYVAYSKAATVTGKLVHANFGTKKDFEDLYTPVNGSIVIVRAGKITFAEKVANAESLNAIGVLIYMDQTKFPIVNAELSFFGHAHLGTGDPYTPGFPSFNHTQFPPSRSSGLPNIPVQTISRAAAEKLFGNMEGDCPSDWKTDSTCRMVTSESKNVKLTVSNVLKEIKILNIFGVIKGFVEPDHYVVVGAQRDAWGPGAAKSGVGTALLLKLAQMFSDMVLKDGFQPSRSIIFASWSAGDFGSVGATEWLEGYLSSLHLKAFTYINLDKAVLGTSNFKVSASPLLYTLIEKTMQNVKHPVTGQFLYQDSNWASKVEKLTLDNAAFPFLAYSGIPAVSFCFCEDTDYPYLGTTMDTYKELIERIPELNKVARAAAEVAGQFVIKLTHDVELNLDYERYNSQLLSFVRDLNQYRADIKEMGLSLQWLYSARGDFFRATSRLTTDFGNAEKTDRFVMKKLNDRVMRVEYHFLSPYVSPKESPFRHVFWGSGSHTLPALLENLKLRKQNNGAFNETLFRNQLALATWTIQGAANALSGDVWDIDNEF
T3 sequence (P02786 89-760): as above
Transferrin receptor 1 (mTfR1), sequence (Q62351 89-763): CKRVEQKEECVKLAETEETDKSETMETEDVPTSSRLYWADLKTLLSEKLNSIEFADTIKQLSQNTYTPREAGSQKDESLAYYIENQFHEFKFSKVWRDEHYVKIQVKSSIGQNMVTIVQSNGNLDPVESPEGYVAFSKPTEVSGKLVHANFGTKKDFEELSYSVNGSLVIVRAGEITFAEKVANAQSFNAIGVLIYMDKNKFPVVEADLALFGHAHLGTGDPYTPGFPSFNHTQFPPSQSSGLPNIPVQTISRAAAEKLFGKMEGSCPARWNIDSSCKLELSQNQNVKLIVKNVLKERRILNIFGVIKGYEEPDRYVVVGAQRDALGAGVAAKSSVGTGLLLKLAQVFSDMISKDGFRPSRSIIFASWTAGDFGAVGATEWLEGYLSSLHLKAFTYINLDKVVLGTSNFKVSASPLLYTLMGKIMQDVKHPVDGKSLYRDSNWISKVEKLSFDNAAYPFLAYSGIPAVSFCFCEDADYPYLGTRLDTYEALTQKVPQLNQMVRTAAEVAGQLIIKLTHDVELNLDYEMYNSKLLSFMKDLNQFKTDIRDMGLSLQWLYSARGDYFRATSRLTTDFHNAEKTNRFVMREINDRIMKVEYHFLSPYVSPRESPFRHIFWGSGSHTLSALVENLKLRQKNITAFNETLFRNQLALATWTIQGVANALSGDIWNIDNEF

B1: XQ-2d (ssDNA)
DNA: ACTCATAGGGTTAGGGGCTGCTGGCCAGATACTCAGATGGTAGGGTTACTATGAGC
For B1, the Kd in series [1] is 2.2 nM; in [3] (setting [16]) it was 14.4 nM. Also, the binding result in series [2] (setting [16]) is reported as “no binding”.

B2: JBA8.15 (ssDNA)
DNA: ATCCAGAGTGACGCAGCACTCTCGGGGGGTAGGTGGGAAGGGGGCCGCCCCCTGGGTTAGGCTTGGACACGGTGGCTTAGT
For the molecule B2, the binding result in series [4] is reported as “no binding”.

B3: JBA8.7 (ssDNA)
DNA: ATCCAGAGTGACGCAGCAACCACAGATGCAAATGCGCGAGAGCGGGACGGTTTGCTAGGCTCATGGACACGGTGGCTTAGT
Take B3: in series [4], the binding result was “no binding”.

B4: JBA8.3 (ssDNA)
DNA: ATCCAGAGTGACGCAGCAGGGGCCGCGGATGCAAACGCCCGATAGGGGGACGGCACTGGAGCTTGGACACGGTGGCTTAGT
On to B4, for which, in [4], the binding result was “no binding”.

B5: tJBA8.1 (ssDNA)
DNA: GCAGCAGCGTAAAGGGGGTGTTTGTGCGGTGTGGAGTGCGCGTGCTGCTGC
As for B5, the Kd was 8.07 nM in series [5]; 25.6 nM in [6]; 25.1 nM in [7]; 1.85 nM in series [9]; 10.9 nM in series [10]. In addition, the binding result in series [8] is listed as “no binding”.

B6: tJBA8.1 GGGAG (ssDNA)
DNA: GCAGCAGCGTAAAGGGAGTGTTTGTGCGGTGTGGAGTGCGCGTGCTGCTGC
On to B6, for which the binding result in series [2] is recorded as “no binding”.

B7: tJBA8.1 GGAGG (ssDNA)
DNA: GCAGCAGCGTAAAGGAGGTGTTTGTGCGGTGTGGAGTGCGCGTGCTGCTGC
On to B7, for which the binding result in series [2] is listed as “no binding”.

B8: tJBA8.1 GGGGC (ssDNA)
DNA: GCAGCAGCGTAAAGGGGCTGTTTGTGCGGTGTGGAGTGCGCGTGCTGCTGC
On to B8, for which the binding result in series [2] was “no binding”.

B9: RANL (ssDNA)
DNA: ATCCAGAGTGACGCAGCAAATTCCAAACTCGAGTAAGCGTAGAGCCTCTCATCGCCTCAATAATGGACACGGTGGCTTAGT
Turning to B9, the binding result in series [2] (label: 5'-FAM, 5'-Cy5 or 5'-biotin) is “no binding”; in series [11], “no binding”.

B10: JBA8.4 (ssDNA)
DNA: ATCCAGAGTGACGCAGCAACCCAAACCACCAGCCGGGGATGCAAACACCGCACAGGGAACGGCTGGACACGGTGGCTTAGT
B10: the binding result in series [4] is recorded as “no binding”.

B11: JBA8.11 (ssDNA)
DNA: ATCCAGAGTGACGCAGCAGCCGGTCGCAGATGCAAATGCCCGACAGGGGGACGCGGGCTGCCATGGACACGGTGGCTTAGT
Regarding B11, the binding result in series [4] is recorded as “no binding”.

B12: rvCD71apt (JBA1.2) (ssDNA)
DNA: GGAGTCACACGCATTAGCGTAAAGGGGGTGTTTGTGCGGTGTGGAGTGCGCGTGCTAATGCTGGAGTGTTTCCCAGGACCC
Consider B12, for which the Kd is 35 nM in series [12]; 35.2 nM in [13] (label: biotin, 3' 8-nt toehold overhang, redesigned stem); 28.5 nM in [14].

B13: JBA8.26 (ssDNA)
DNA: ATCCAGAGTGACGCAGCAGCGTAAAGGGGGTGTTTGTGCGGTGTGGAGTGCGCGCGCTGCTGCTGGACACGGTGGCTTAGT
For the molecule B13, the Kd in series [15] was found to be 3.3 nM; in [3] (label: 5'-FAM or 5'-Cy5, multi-hairpin with extended stem), 6.87 nM.

B14: JBA8.1 (ssDNA)
DNA: ATCCAGAGTGACGCAGCAGCGTAAAGGGGGTGTTTGTGCGGTGTGGAGTGCGCGTGCTGCTGCTGGACACGGTGGCTTAGT
B14: in [13] (label: 5'-FAM or 5'-Cy5, multi-hairpin on stem, G-quadruplex predicted), the Kd is 5.5 nM.
